Measurements taken from PMC4005678, “Structural basis for Klf4 recognition of methylated DNA”.

Biological target: Klf4 ZnF1-3 DNA-binding domain (mouse, UniProt Q60793 396-483)
Experiment: X-ray crystallography (1.85 A); 3 Zn2+; FP: 20 mM Tris-HCl pH 7.5, 150 mM NaCl, 5% (v/v) glycerol, 0.5 mM TCEP, ~22 C; probe 10 nM (WT) or 1 nM (E446A)
Conditions: protein: recombinant; tags: GST tag removed; N-terminal GPLGS left; blunt

Sequence of Klf4 ZnF1-3 DNA-binding domain (Q60793 396-483): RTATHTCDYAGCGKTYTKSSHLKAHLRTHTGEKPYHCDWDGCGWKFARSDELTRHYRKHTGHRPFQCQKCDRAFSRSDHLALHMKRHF

B1: crystal 10-mer M/M (dsDNA)
DNA 1: GAGGCGTGGC
DNA 2: GCCACGCCTC
modifications: 5mC at position 5 of strand 1 and position 5 of strand 2
Q: Does B1 bind?
A: binds
